Experiments:
[1] = tested on: growth of ABP1 SH3-swapped strains in hygromycin B; settings: cited from earlier work
Description: Having determined that multiple PPIs require SH3s, we asked whether the latter establish PPI specificity independently from their host proteins by swapping domains (Fig. 2A). Using the second round of genome editing, we individually replaced Abp1 SH3 with the 27 yeast SH3s and 3 human Abp1 orthologs’ SH3s (CTTN, HCLS1, and DBNL, Fig. 2B). The reintroduction of its own SH3 (Abp1SH3 in Abp1) reconstitutes almost perfectly Abp1’s interaction profile (Kendall’s τ = 0.93, Fig. 2B).

[2] = tested on: Abp1 (1xFLAG); assay: Western blot expression level of Abp1 SH3 mutants (Fig. S3C-D); type: cell-based, Saccharomyces cerevisiae
Protocol: Precultures of yeast cells expressing baits fused with the DHFR F[1,2]-FLAG were grown overnight at 30 °C with agitation in synthetic complete medium. The next day, cells were expanded in synthetic complete medium to reach their exponential phase (OD600 of around 1.0), pelleted, and frozen at −80 °C. The equivalent of fifty OD600 of cells was resuspended in ice-cold yeast lysis buffer (10 mM Tris-HCl pH 7.4, 150 mM NaCl, 0.5 mM EDTA (Millipore Sigma), 1% Triton X-100 (Millipore Sigma), and one cOmplete Mini Protease Inhibitor Cocktail (Millipore Sigma) per 10 mL) with […] glass beads (Millipore Sigma) and disrupted at 4 °C by 10 cycles of 2 min vortexing and 2 min cooldown. The equivalent of […] of lysed cells was used for the immunoprecipitation of the bait proteins using FLAG-M2 agarose beads (Millipore Sigma). The beads were incubated with the cell lysates for 120 min at 4 °C with a slow rotation, followed by three washes with the yeast lysis buffer.
Protein extracts and affinity-purified baits from yeast and human lysed cells were migrated on 10% polyacrylamide gels. The separated proteins were then transferred to nitrocellulose membranes. Validation of correct protein loading was done with ponceau staining of the membranes. Before the primary antibody incubations, membranes were blocked in 5% milk. Protein signals were detected on an Amersham Imager 600RGB (GE Healthcare) following the incubation of the membranes with the appropriate HRP-conjugated secondary antibodies and the Clarity Western ECL Substrate (Bio-Rad). The antibodies used in this study are M2-HRP (A8592, Sigma, 1/50,000), rabbit anti-FLAG (F7425, Sigma, 1/1000), PAK (SC-881, Santa Cruz, 1/200), p130cas/BCAR1 (SC-860, Santa Cruz, 1/200), actin (Cell Signaling Technology, 1/2000), anti-mouse HRP (Cell Signaling Technology, 1/10,000) and anti-rabbit HRP (Cell Signaling Technology, 1/10,000). The quantification of the WB signals was performed with the Amersham Imager 600 analysis software (GE Healthcare). […]
C, WB comparing expression levels of selected Abp1 SH3 mutants with WT Abp1. An asterisk represents a stop codon, which inhibits translation of the 1xFLAG epitope. D, Quantification of the relative level of expression of Abp1 SH3 mutants by WB as in C, (log2 of Abp1 SH3 mutant/Abp1 WT ratio, WB relative level of expression of 0 for WT Abp1) compared to their DMS scores (Hua2 (left): Pearson’s r = -0.34, p-value = 0.46, Lsb3 […]
(right): Pearson’s r = -0.81, p-value = 0.03). […]
Most […]
interface residues sensitive to mutations, such as Y7, E13, E16, V3 1, D32, D34, L48 and Y53, specifically affect Hua2 PPI. See also Supplementary Table 4.

B1: ABP1: yeast SH3-containing protein; SH3-deleted (D) or gene-deleted (KO) strain (protein, UniProt P15891 2-592, looked up)
Actin-binding protein: ALEPIDYTTHSREIDAEYLKIVRGSDPDTTWLIISPNAKKEYEPESTGSSFHDFLQLFDETKVQYGLARVSPPGSDVEKIIIIGWCPDSAPLKTRASFAANFAAVANNLFKGYHVQVTARDEDDLDENELLMKISNAAGARYSIQTSSKQQGKASTPPVKKSFTPSKSPAPVSKKEPVKTPSPAPAAKISSRVNDNNDDDDWNEPELKERDFDQAPLKPNQSSYKPIGKIDLQKVIAEEKAKEDPRLVQKPTAAGSKIDPSSDIANLKNESKLKRDSEFNSFLGTTKPPSMTESSLKNDDDKVIKGFRNEKSPAQLWAERKAKQNSGNAETKAEAPKPEVPEDEPEGEPDVKDLKSKFEGLAASEKEEEEMENKFAPPPKKSEPTIISPKPFSKPQEPVKAEEAEQPKTDYKKIGNPLPGMHIEADNEEEPEENDDDWDDDEDEAAQPPLPSRNVASGAPVQKEEPEQEEIAPSLPSRNSIPAPKQEEAPEQAPEEEIEEEAEEAAPQLPSRSSAAPPPPPRRATPEKKPKENPWATAEYDYDAAEDNELTFVENDKIINIEFVDDDWWLGELEKDGSKGLFPSNYVSLGN
Hygromycin phenotype, literature [1]: hygromycin resistance

B2: WT (protein, UniProt P15891 2-592, looked up)
Actin-binding protein: B1 Actin-binding protein
Ratio Mutant/WT Flag ([2]; Western blot Flag signal of mutant relative to WT): 1
Flag (2 bands) ([2]; Western blot, Flag signal, 2 bands): 36554
